± gives the uncertainty stated by the source.
Experiment: protein stability index of a GFP-peptide fusion (yeast GPS) (PSI 1-4); higher = more stable; sorted into four equal gates, so the index is relative within each strain
Summary of the method: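 Each library plasmid carries Cherry plus GFP with a tiled 17-residue yeast protein peptide fused downstream, and the pooled library was carried in yeast. Mid-log cultures in leucine-free medium were sorted into four equal gates by GFP/Cherry ratio. Reads from Illumina sequencing of PCR-amplified plasmids from each gate were assigned to strains by barcodes. Per peptide, the protein stability index was computed as the summed products of gate read frequency and gate number.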

Sequence | protein stability index (doa10∆) | protein stability index (pdr5∆) | protein stability index (san1∆) | protein stability index (ubr1∆)
TASFIPLDTIETELPTL [SMC1] | 2.58 ± 0.066 | 2.65 ± 0.078 | 2.56 ± 0.066 | 2.53 ± 0.051
TASKIIVIDVDYNKKQD [MED1] | 2.21 ± 0.083 | 2.58 ± 0.081 | 2.17 ± 0.055 | 2.65 ± 0.065
TASSEASAGSKEGASTN [YMR153W/NUP53] | 3.09 ± 0.2 | 3.23 ± 0.14 | 3.32 ± 0.16 | 3.39 ± 0.12
TASVEKAEFSKEMTLQK [YIL149C/MLP2] | 3.25 ± 0.15 | 3.44 ± 0.14 | 3.3 ± 0.14 | 3.22 ± 0.13
TATNSKGEQIAIFPYQD [ECM29] | 2.44 ± 0.085 | 2.98 ± 0.12 | 3.29 ± 0.12 | 3.15 ± 0.15
TAVKQGVTSLGIKATNG [PRE8] | 2.41 ± 0.065 | 2.06 ± 0.055 | 1.87 ± 0.072 | 1.71 ± 0.083
TAVSFVSAAEDESLIRE [PRP28] | 2.77 ± 0.093 | 3.27 ± 0.15 | 3.04 ± 0.16 | 2.2 ± 0.15
TCAGGRLFNVVVQDSQT [SMC2] | 2.84 ± 0.11 | 3.18 ± 0.11 | 2.39 ± 0.12 | 2.76 ± 0.082
TCDEIQNFENDFSLRYI [REC8] | 2.52 ± 0.14 | 2.12 ± 0.28 | 3.35 ± 0.15 | 2.88 ± 0.28
TDAMTESQPKQTGTRRN [MCD1] | 3.04 ± 0.12 | 3.35 ± 0.12 | 3.2 ± 0.068 | 3.09 ± 0.061
TDDADDHINWEHIKQDY [NSL1] | 3.4 ± 0.1 | 3.4 ± 0.12 | 3.27 ± 0.13 | 3.4 ± 0.082
TDGVIGSRTTTNHVLEV [RPO31] | 3.17 ± 0.094 | 3.62 ± 0.094 | 3.19 ± 0.13 | 3.54 ± 0.088
TDKPFSSTQDVILRKIS [CSI1] | 2.87 ± 0.13 | 3.31 ± 0.13 | 2.92 ± 0.071 | 3.05 ± 0.06
TDLIREKTMMTFGKPEE [YCS4] | 3.14 ± 0.053 | 3.31 ± 0.062 | 3.19 ± 0.041 | 3.11 ± 0.05
TDLPIETAAMASLALAH [RPN1] | 1.5 ± 0.046 | 1.66 ± 0.043 | 1.58 ± 0.063 | 1.43 ± 0.045
TDLSGKETIARVTGGMK [RPS14A] | 3.06 ± 0.087 | 3.12 ± 0.082 | 2.79 ± 0.056 | 2.92 ± 0.061
TDLTNNSTDGAKITEIG [YIL149C/MLP2] | 3.35 ± 0.087 | 3.17 ± 0.08 | 3.07 ± 0.058 | 3.28 ± 0.055
TDRESYPRLQDPSRELN [YCS4] | 3.14 ± 0.05 | 3.19 ± 0.043 | 3.23 ± 0.034 | 3.09 ± 0.052
TDRITRLFIKPGQKMSL [BRN1] | 3.22 ± 0.11 | 2.9 ± 0.11 | 2.97 ± 0.14 | 3.17 ± 0.1
TDVEKSDPAAKKTATEP [SRP21] | 3.2 ± 0.11 | 3.02 ± 0.085 | 3.32 ± 0.046 | 3.18 ± 0.096
TEALLLEHDVEYRPFSK [DIS3] | 3.18 ± 0.095 | 3.08 ± 0.085 | 3.17 ± 0.08 | 3.3 ± 0.082
TEDQKVTTNINWRSFNA [SRP68] | 3.13 ± 0.097 | 3.16 ± 0.074 | 3.1 ± 0.058 | 3.21 ± 0.049
TEFEFYLLEELESYLIV [SSN8] | 2.63 ± 0.099 | 2.72 ± 0.087 | 3.21 ± 0.12 | 2.72 ± 0.064
TEKEEAVAKAAEKKVVR [RPL17A] | 3.44 ± 0.087 | 3.35 ± 0.082 | 3.24 ± 0.053 | 3.24 ± 0.062
TEKLSNGFSFTKFNHNK [YOR098C/NUP1] | 3.02 ± 0.089 | 3.14 ± 0.064 | 3.02 ± 0.037 | 2.94 ± 0.063
TELLDYATKLSKFTKIP [MED4] |  | 2.71 ± 0.23 | 2.98 ± 0.16 | 
TELLNIYDSEDPQQVFD [RPN3] | 2.88 ± 0.1 | 3.13 ± 0.078 | 3.15 ± 0.084 | 2.87 ± 0.058

— the supplement of paper PMC9732359
